Laboratory results taken from the supplement of paper PMC10201428.
± gives the standard deviation of the averaged measurements.

Tests used:
[1] = tested on: VchCAST RNA-guided transposition machinery (E. coli BL21(DE3) host, lacZ target); assay: relative integration efficiency (T-LR orientation) vs wild-type transposon end (log2 (normalized fold change)); transposon end mutated: left end; higher = more efficient transposition
Description: (§1)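 Pooled, barcoded VchCAST (Tn6677) mini-transposon donor libraries; each variable transposon-end sequence sits in a fixed pDonor mini-transposon context (10-bp barcode and cargo not included). Left- or right-end libraries were co-transformed with pEffector (TniQ-Cascade, TnsABC, lacZ crRNA, T7, 0.1 mM IPTG) into E. coli BL21(DE3) and grown 18 h at 37 C. T-LR and T-RL junction amplicons were sequenced; output/input barcode fold change was normalised to the mean of four wild-type barcodes and log2-transformed. Two biological replicates; zero-count/undetected variants carry floor values (-10 / -15), censored here. Barcode uncoupling by PCR recombination adds noise.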

[2] = tested on: VchCAST RNA-guided transposition machinery (E. coli BL21(DE3) host, lacZ target); assay: relative integration efficiency (T-RL orientation) vs wild-type transposon end (log2 (normalized fold change)); transposon end mutated: left end; higher = more efficient transposition
Description: as §1

AATGTTGTTGAAACAACCATAAAGTGATAACAACGAATCAATTAAAATCATAGGCTTAATCGAAAAACAACCATATCTTGATATCGCACAAAACAACCATAAGTTGATATTTTTGTGAATCGAGTATTTCAGCAAAACTACTGCAGTAAGAA
relative integration efficiency (log2) [1]: -0.526 ± 0.33
relative integration efficiency (log2) [2]: -0.51 ± 0.3

AATGTTGTTGAAACAACCATAAAGTGATAACAACGAATCAATTAAAATCATAGGCTTAATCGAAAAACAACCATATCTTGATATCGCATAAAACAACCATAAGTTGATATTTTGGTGAAAAGGATATTCCAACCTTCATAGTTTAGTAAGAA
relative integration efficiency (log2) [1]: 0.198 ± 0.12
relative integration efficiency (log2) [2]: -0.201 ± 0.34

AATGTTGTTGAAACAACCATAAAGTGATAACAACGAATCAATTAAAATCATAGGCTTAATCGAAAAACAACCATATCTTGATATCGCATAAAACAACCATAAGTTGATATTTTGGTGAAACGAGTATTTCAGCAAAACTACTGCAGTAAGAA
relative integration efficiency (log2) [1]: -0.44 ± 0.53
relative integration efficiency (log2) [2]: 0.0434 ± 0.29

AATGTTGTTGAAACAACCATAAAGTGATAACAACGAATCAATTAAAATCATAGGCTTAATCGAAAAACAACCATATCTTGATATCGCATAAAACAACCATAAGTTGATATTTTTGTGAATCGAGTATTTCAGCAAAACTACTGCAGTAAGAA
relative integration efficiency (log2) [1]: -0.327 ± 0.31
relative integration efficiency (log2) [2]: -0.424 ± 0.24

AATGTTGTTGACAACCATAAAGTGATATTTAATAATTATTTATAATCAGCAACTTAACCACAAAACAACCATATATTGATATCTCACAAAACAACCATAAGTTGATATTTTTGTGAATCGAGTATTTCAGCAAAACTACTGCAGTAAGAAAG
relative integration efficiency (log2) [1]: -5.1 ± 0.69
relative integration efficiency (log2) [2]: -1.33 ± 0.66

AATGTTGTTGATACAACCATAAAATGATAATTACACCCATAAATTGATAATTATCACACCCATAAATTGATATTGCTGTGAATCGAGTATTTCAGCAAAACTACTGCAGTAAGAAAGTTACTTCGTGGTATGGGAGGATCAAGGAGCCAATA
relative integration efficiency (log2) [1]: 3.47 ± 0.79
relative integration efficiency (log2) [2]: -2.21 ± 0.71

AATGTTGTTGATACAACCATAAAGTGATATTTACAACCATATATTGATATCTCTCACAACCATAAGTTGATATTTTTGTGAATCGAGTATTTCAGCAAAACTACTGCAGTAAGAAAGTTACTTCGTGGTATGGGAGGATCAAGGAGCCAATA
relative integration efficiency (log2) [1]: 2.35 ± 0.84
relative integration efficiency (log2) [2]: -3.51 ± 1

AATGTTGTTGATCAACCATAAAGTGATATTTAATAATTATTTATAATCAGCAACTTAACCACAAAACAACCATATATTGATATCTCACAAAACAACCATAAGTTGATATTTTTGTGAATCGAGTATTTCAGCAAAACTACTGCAGTAAGAAA
relative integration efficiency (log2) [1]: < -10
relative integration efficiency (log2) [2]: -6.905 ± 0.028

AATGTTGTTGATGACCAACGCCCTGTCGCGGGCCGCCGGCGGGCGCCGACTACCAGGCCAACACCCCACCAACGCGCGGTCGCGAGACACCCCACCAACGCCTGGTCGCGGGGGTGTCCGATCTGATTTCAGCAAAACTACTGCAGTAAGAA
relative integration efficiency (log2) [1]: < -10

AATGTTGTTGATGACCAACGCCTGGTCGCGGGGATAATTATTTATAATCAGCAACTTAACCACAAAACAACCATATATTGATATCTCACAAAAACCAACGCCCTGTCGCGGGCTGTGAATCGAGTATTTCAGCAAAACTACTGCAGTAAGAA
relative integration efficiency (log2) [1]: < -10

AATGTTGTTGATGCAACACGCCCTGTCGCGGGCCGCCGGCGGGCGCCGACTACCAGGCCAACACCCCACCAACGCGCGGTCGCGAGACACCCCACCAACGCCTGGTCGCGGGGGTGTCCGATCTGATTTCAGCAAAACTACTGCAGTAAGAA
relative integration efficiency (log2) [1]: < -10
relative integration efficiency (log2) [2]: < -10

AATGTTGTTGATGCAACCAATTTCTGATATTTAATAATTATTTATAATCAGCAACTTAACCACAAAACAACCAATATATGATATCTCACAAAACAACCAATTCATGATATTTTTGTGAATCGAGTATTTCAGCAAAACTACTGCAGTAAGAA
relative integration efficiency (log2) [1]: -1.57 ± 0.77
relative integration efficiency (log2) [2]: -2.5 ± 1.1

AATGTTGTTGATGCAACCAGCCCTGTCGCGGGCCGCCGGCGGGCGCCGACTACCAGGCCAACACCCCACCAACGCGCGGTCGCGAGACACCCCACCAACGCCTGGTCGCGGGGGTGTCCGATCTGATTTCAGCAAAACTACTGCAGTAAGAA
relative integration efficiency (log2) [1]: -9 ± 0.31
relative integration efficiency (log2) [2]: < -10

AATGTTGTTGATGCAACCAGCCCTTGATATTTAATAATTATTTATAATCAGCAACTTAACCACAAAACAACCAGCGCGTGATATCTCACAAAACAACCAGCCTGTGATATTTTTGTGAATCGAGTATTTCAGCAAAACTACTGCAGTAAGAA
relative integration efficiency (log2) [1]: < -10

AATGTTGTTGATGCAACCATAAAATGATAATTAATAATTATTTATAATCAGCAACTTAACCACAAAACAACCATAAAATGATAATTAACAAAAGTTGGTATTCAACTATAAAATGTGAATCGAGTATTTCAGCAAAACTACTGCAGTAAGAA
relative integration efficiency (log2) [1]: -1.23 ± 2.7
relative integration efficiency (log2) [2]: -2.57 ± 1.3

AATGTTGTTGATGCAACCATAAAATGATAATTAATAATTATTTATAATCAGCAACTTAACCACAAAACAACCATAAAATGATAATTAACAAAATAATTATCATTTTATGGTTGTGTGAATCGAGTATTTCAGCAAAACTACTGCAGTAAGAA
relative integration efficiency (log2) [1]: 0.0912 ± 1.6
relative integration efficiency (log2) [2]: -3.63 ± 0.84

AATGTTGTTGATGCAACCATAAAGTGATATTTAATAATTATTCAACCATATATTGATATCTCACAAAACAACCATAAGTTGATATTTTTGTGAATCGAGTATTTCAGCAAAACTACTGCAGTAAGAAAGTTACTTCGTGGTATGGGAGGATC
relative integration efficiency (log2) [1]: -5.27 ± 0.11

AATGTTGTTGATGCAACCATAAAGTGATATTTAATAATTATTTATAATCAGCACAACCATATATTGATATCTCACAAAACAACCATAAGTTGATATTTTTGTGAATCGAGTATTTCAGCAAAACTACTGCAGTAAGAAAGTTACTTCGTGGT
relative integration efficiency (log2) [1]: -4.94 ± 0.63

AATGTTGTTGATGCAACCATAAAGTGATATTTGCTAGCATTATACCTAGGACTGAGCTAGCTGTCAACAACCATATATTGATATCTCACAAAACAACCATAAGTTGATATTTTTGTGAATCGAGTATTTCAGCAAAACTACTGCAGTAAGAA
relative integration efficiency (log2) [1]: < -10

AATGTTGTTGATGCAACCATAAAGTGCGCGGGCCGCCGGCGGGCGCCGACTACCAGGCCAACACCCCACCAACGCGCGGTCGCGAGACACCCCACCAACGCCTGGTCGCGGGGGTGTCCGATCTGATTTCAGCAAAACTACTGCAGTAAGAA
relative integration efficiency (log2) [1]: < -10

AATGTTGTTGATGCAACCATAAAGTTCGCGGGCCGCCGGCGGGCGCCGACTACCAGGCCAACACCCCACCAACGCGCGGTCGCGAGACACCCCACCAACGCCTGGTCGCGGGGGTGTCCGATCTGATTTCAGCAAAACTACTGCAGTAAGAA
relative integration efficiency (log2) [1]: < -10

AATGTTGTTGATGCAACCATAAATGTCGCGGGCCGCCGGCGGGCGCCGACTACCAGGCCAACACCCCACCAACGCGCGGTCGCGAGACACCCCACCAACGCCTGGTCGCGGGGGTGTCCGATCTGATTTCAGCAAAACTACTGCAGTAAGAA
relative integration efficiency (log2) [1]: < -10

AATGTTGTTGATGCAACCATACCTGTATATTTAATAATTATTTATAATCAGCAACTTAACCACAAAACAACCATAGCGGTATATCTCACAAAACAACCATACTGGTATATTTTTGTGAATCGAGTATTTCAGCAAAACTACTGCAGTAAGAA
relative integration efficiency (log2) [1]: < -10

AATGTTGTTGATGCACAACGCCCTGTCGCGGGCCGCCGGCGGGCGCCGACTACCAGGCCAACACCCCACCAACGCGCGGTCGCGAGACACCCCACCAACGCCTGGTCGCGGGGGTGTCCGATCTGATTTCAGCAAAACTACTGCAGTAAGAA
relative integration efficiency (log2) [1]: < -10

AATGTTGTTGATGCCCAACGCCCTGTCGCGGGCCGCCGGCGGGCGCCGACTACCAGGCCAACACCCCACCAACGCGCGGTCGCGAGACACCCCACCAACGCCTGGTCGCGGGGGTGTCCGATCTGATTTCAGCAAAACTACTGCAGTAAGAA
relative integration efficiency (log2) [1]: < -10

AATGTTGTTGATGGTTGGTATTTCACTATAAATATAATTATTTATAATCAGCAACTTAACCACAAAACAACCATATATTGATATCTCACAAAACAACCATAAGTTGATATTTTTGTGAATCGAGTATTTCAGCAAAACTACTGCAGTAAGAA
relative integration efficiency (log2) [2]: -6.55 ± 1.7

AATGTTGTTGATGGTTGGTATTTCACTATAAATATAATTATTTATAATCAGCAACTTAACCACAAAACAACCATATATTGATATCTCACAAAAGTTGGTATTCAACTATAAAATGTGAATCGAGTATTTCAGCAAAACTACTGCAGTAAGAA
relative integration efficiency (log2) [2]: -8.45 ± 0.29

AATGTTGTTGATGGTTGGTATTTCACTATAAATATAATTATTTATAATCAGCAACTTAACCACAAAAGTTGGTATATAACTATAGAGACAAAACAACCATAAGTTGATATTTTTGTGAATCGAGTATTTCAGCAAAACTACTGCAGTAAGAA
relative integration efficiency (log2) [2]: -8.28 ± 1.3

AATGTTGTTGATGTAATTATCATTTTATGGTTGATAATTATTTATAATCAGCAACTTAACCACAAAACAACCATAAAATGATAATTAACAAAACAACCATAAAATGATAATTATGTGAATCGAGTATTTCAGCAAAACTACTGCAGTAAGAA
relative integration efficiency (log2) [1]: < -10

AATGTTGTTGATGTAATTATCATTTTATGGTTGATAATTATTTATAATCAGCAACTTAACCACAAAATAATTATCATTTTATGGTTGACAAAACAACCATAAAATGATAATTATGTGAATCGAGTATTTCAGCAAAACTACTGCAGTAAGAA
relative integration efficiency (log2) [1]: < -10

AATGTTGTTGATGTGTTGACAACCATAAAGTGATATTTAATAATTATTTATAATCAGCAACTTAACCACAAAACAACCATATATTGATATCTCACAAAACAACCATAAGTTGATATTTTTGTGAATCGAGTATTTCAGCAAAACTACTGCAG
relative integration efficiency (log2) [2]: -2.23 ± 0.63

AATGTTGTTGATGTGTTGATCAACCATAAAGTGATATTTAATAATTATTTATAATCAGCAACTTAACCACAAAACAACCATATATTGATATCTCACAAAACAACCATAAGTTGATATTTTTGTGAATCGAGTATTTCAGCAAAACTACTGCA
relative integration efficiency (log2) [2]: -4.39 ± 0.52
